From the supplement of paper PMC9112550, “Optimization of the antimicrobial peptide Bac7 by deep mutational scanning” (BMC Biology, 2022) come the findings set out here.
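Further: peptides expressed intracellularly from a pBAD plasmid library in pooled LB shake-flask culture, induced with 0.3% L-arabinose, DNA abundance read by NGS, three biological replicates, DESeq2 with apeglm shrinkage.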

For this data set, the system named is Escherichia coli TOP10. The data set can be described thus: shrunken log2 fold change of peptide-encoding DNA abundance (4.5 h post-induction vs induction); higher = less antimicrobial activity (less host growth inhibition). As to conditions: time post-induction: 4.5 h; library: site-saturation at positions 5, 18, 19, 20.
Consider RRIRFRPPRLPRPRPRPTIFPRP, for which the “shrunken log2 fold change” value was -0.274.
Under RRIRGRPPRLPRPRPRPENHPRP stands 0.455; under RRIRLRPPRLPRPRPRPTCNPRP, -0.4; under RRIRARPPRLPRPRPRPKDIPRP, -0.00725.
As to RRIRGRPPRLPRPRPRPDANPRP, the “shrunken log2 fold change” value came out at 1.99.
Under RRIRCRPPRLPRPRPRPNTSPRP stands -0.343; under RRIRTRPPRLPRPRPRPVKIPRP, -1.21.
With RRIRCRPPRLPRPRPRPGRQPRP the figure was 0.285.
For the sequence RRIRMRPPRLPRPRPRPMGRPRP, the “shrunken log2 fold change” value was -0.0209.
With RRIRTRPPRLPRPRPRPFKGPRP the figure was -0.264; with RRIRWRPPRLPRPRPRPHGLPRP, 0.0735; with RRIRHRPPRLPRPRPRPVFPPRP, 0.171.
Under RRIRKRPPRLPRPRPRPTTQPRP stands 0.196.
In the case of RRIRVRPPRLPRPRPRPCCTPRP, the “shrunken log2 fold change” value is -0.247.
Under RRIRRRPPRLPRPRPRPVWEPRP stands 0.00461; under RRIRCRPPRLPRPRPRPMMIPRP, -0.044.
Under RRIRQRPPRLPRPRPRPKENPRP stands 0.168.
With RRIRRRPPRLPRPRPRPEIIPRP the figure was 0.0119; with RRIRQRPPRLPRPRPRPFGTPRP, -0.1; with RRIRDRPPRLPRPRPRPKVKPRP, -0.337.
With RRIRVRPPRLPRPRPRPVVHPRP, the “shrunken log2 fold change” value was -0.0292.
For RRIRERPPRLPRPRPRPRANPRP, the “shrunken log2 fold change” value was -0.158.
As to RRIRQRPPRLPRPRPRPQILPRP, the “shrunken log2 fold change” value was -0.132.
In the case of RRIRFRPPRLPRPRPRPILWPRP, the “shrunken log2 fold change” value was -0.0429.
With RRIRERPPRLPRPRPRPPGGPRP the figure was 0.56.
With RRIRFRPPRLPRPRPRPDDNPRP the figure was -0.137; with RRIRMRPPRLPRPRPRPTLAPRP, 1.35; with RRIRHRPPRLPRPRPRPVFEPRP, -0.153.
RRIRLRPPRLPRPRPRPHTTPRP: the “shrunken log2 fold change” value was -0.368.
With RRIRFRPPRLPRPRPRPWWQPRP the figure was -0.0583.
Turning to RRIRQRPPRLPRPRPRPCATPRP, the “shrunken log2 fold change” value was -0.0476.
For RRIRKRPPRLPRPRPRPGEKPRP, the “shrunken log2 fold change” value came out at 0.015.
Turning to RRIRIRPPRLPRPRPRPTHNPRP, the “shrunken log2 fold change” value was -0.145.
On to RRIRLRPPRLPRPRPRPEIWPRP, for which the “shrunken log2 fold change” value stood at 0.198.
With RRIRWRPPRLPRPRPRPSCWPRP the figure was 0.0114; with RRIRFRPPRLPRPRPRPCGTPRP, -0.207; with RRIRKRPPRLPRPRPRPMKDPRP, 0.618.
Under RRIRYRPPRLPRPRPRPNNSPRP stands -0.52; under RRIRPRPPRLPRPRPRPQMSPRP, 0.0674; under RRIRTRPPRLPRPRPRPNLSPRP, 0.00227.
Under RRIRFRPPRLPRPRPRPFEVPRP stands -0.571; under RRIRARPPRLPRPRPRPREPPRP, 0.199.
Consider RRIRCRPPRLPRPRPRPSWQPRP, for which the “shrunken log2 fold change” value was -0.0872.
As for RRIRNRPPRLPRPRPRPVHVPRP, the “shrunken log2 fold change” value was 0.0303.
Take RRIRARPPRLPRPRPRPFFRPRP: the “shrunken log2 fold change” value was 0.126.
Consider RRIRGRPPRLPRPRPRPMLCPRP, for which the “shrunken log2 fold change” value amounted to 0.558.
With RRIRQRPPRLPRPRPRPIEPPRP the figure was -0.0381.
Take RRIRPRPPRLPRPRPRPSRPPRP: the “shrunken log2 fold change” value was 0.133.
Turning to RRIRHRPPRLPRPRPRPFGIPRP, the “shrunken log2 fold change” value was -0.0887.
With RRIRFRPPRLPRPRPRPAEGPRP the figure was 0.234; with RRIRTRPPRLPRPRPRPVKMPRP, -0.0502; with RRIRLRPPRLPRPRPRPAWFPRP, 0.103.
For RRIRRRPPRLPRPRPRPIDRPRP, the “shrunken log2 fold change” value was -0.0459.
With RRIRARPPRLPRPRPRPRHLPRP the figure was 0.11; with RRIRGRPPRLPRPRPRPPCSPRP, 0.238.
For the sequence RRIRLRPPRLPRPRPRPESFPRP, the “shrunken log2 fold change” value is 0.0256.
With RRIRMRPPRLPRPRPRPRQGPRP, the “shrunken log2 fold change” value is -0.0232.
Regarding RRIRYRPPRLPRPRPRPWHYPRP, the “shrunken log2 fold change” value is -0.809.
On to RRIRERPPRLPRPRPRPIVVPRP, for which the “shrunken log2 fold change” value is -0.29.
Consider RRIRTRPPRLPRPRPRPNNTPRP, for which the “shrunken log2 fold change” value was -0.518.
For the sequence RRIRQRPPRLPRPRPRPGVPPRP, the “shrunken log2 fold change” value stood at 0.154.
For the sequence RRIRMRPPRLPRPRPRPLQQPRP, the “shrunken log2 fold change” value was found to be 2.85.
Regarding RRIRFRPPRLPRPRPRPYKDPRP, the “shrunken log2 fold change” value was -0.213.
RRIRHRPPRLPRPRPRPPNFPRP: the “shrunken log2 fold change” value is -0.00427.
Under RRIRMRPPRLPRPRPRPHEDPRP stands 0.465.
As to RRIRKRPPRLPRPRPRPVKHPRP, the “shrunken log2 fold change” value was -0.0571.
Regarding RRIRERPPRLPRPRPRPQYLPRP, the “shrunken log2 fold change” value was -0.0574.
As to RRIRLRPPRLPRPRPRPLMCPRP, the “shrunken log2 fold change” value is -0.422.
Regarding RRIRNRPPRLPRPRPRPVVFPRP, the “shrunken log2 fold change” value was -0.0743.
With RRIRNRPPRLPRPRPRPVFEPRP the figure was 0.07; with RRIRDRPPRLPRPRPRPANIPRP, -0.114.
Under RRIRTRPPRLPRPRPRPHAWPRP stands 3.26; under RRIRPRPPRLPRPRPRPMMSPRP, 0.081; under RRIRLRPPRLPRPRPRPINYPRP, -0.857.
With RRIRPRPPRLPRPRPRPIKPPRP the figure was -0.0651.
In the case of RRIRFRPPRLPRPRPRPPHCPRP, the “shrunken log2 fold change” value came out at 0.362.
Turning to RRIRDRPPRLPRPRPRPELWPRP, the “shrunken log2 fold change” value is 2.17.
Regarding RRIRRRPPRLPRPRPRPNDAPRP, the “shrunken log2 fold change” value is -0.0546.
Under RRIRMRPPRLPRPRPRPNNKPRP stands -0.183.
Under RRIRTRPPRLPRPRPRPHTCPRP stands -0.0347.
Take RRIRCRPPRLPRPRPRPQNGPRP: the “shrunken log2 fold change” value worked out at 0.0924.
RRIRWRPPRLPRPRPRPTQGPRP: the “shrunken log2 fold change” value was determined as 0.533.
Under RRIRRRPPRLPRPRPRPIDEPRP stands -0.106; under RRIRMRPPRLPRPRPRPHAKPRP, 0.256.
Regarding RRIRCRPPRLPRPRPRPNKCPRP, the “shrunken log2 fold change” value is -0.279.
As for RRIRNRPPRLPRPRPRPKGYPRP, the “shrunken log2 fold change” value is -0.0233.
Take RRIRKRPPRLPRPRPRPTMRPRP: the “shrunken log2 fold change” value amounted to 1.02.
For the sequence RRIRIRPPRLPRPRPRPRLVPRP, the “shrunken log2 fold change” value was 0.22.
With RRIRTRPPRLPRPRPRPSSDPRP the figure was 1.82; with RRIRQRPPRLPRPRPRPATNPRP, -0.0811.
Consider RRIRSRPPRLPRPRPRPHREPRP, for which the “shrunken log2 fold change” value is -0.14.
